Assay results reported in PMC9482650, “Quantitative fragmentomics allow affinity mapping of interactomes” (Nature Communications, 2022).
Substitutions are numbered along the chain they refer to.

molecular target: T1, APBA2_1, Q99767; assay: holdup assay; parameters: key: below the threshold = too weak to quantify, mostly under pKd 3.1 to 4; details: plain residues with an end cap or a label only (N-terminal biotin on a linker: ado-ado)
T1 sequence (Q99767 563-664, limits assumed, looked up): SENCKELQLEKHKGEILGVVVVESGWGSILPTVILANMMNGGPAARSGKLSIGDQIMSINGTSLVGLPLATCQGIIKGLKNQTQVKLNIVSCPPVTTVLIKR

| pKd | Binder |
| --- | --- |
| below the threshold | LESTTVGTSV [KARS1, Q15046] |
| below the threshold | STKRKLASAV [NCF1, P14598] |

molecular target: HTRA1, Q92743; assay: holdup assay; parameters: key: below the threshold = too weak to quantify, mostly under pKd 3.1 to 4; details: plain residues with an end cap or a label only (N-terminal biotin on a linker: ado-ado)
Sequence (Q92743 360-477): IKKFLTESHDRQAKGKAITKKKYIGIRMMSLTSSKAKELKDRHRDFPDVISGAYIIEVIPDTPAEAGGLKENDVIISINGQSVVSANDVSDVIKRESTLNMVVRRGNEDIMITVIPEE

| pKd | Binder |
| --- | --- |
| 3.95 | LESTTVGTSV [KARS1, Q15046] |
| below the threshold | STKRKLASAV [NCF1, P14598] |

molecular target: GORASP2, Q9H8Y8; assay: holdup assay; parameters: key: below the threshold = too weak to quantify, mostly under pKd 3.1 to 4; details: plain residues with an end cap or a label only (N-terminal biotin on a linker: ado-ado)

| pKd | Binder |
| --- | --- |
| below the threshold | LESTTVGTSV [KARS1, Q15046] |
| below the threshold | STKRKLASAV [NCF1, P14598] |

molecular target: T2, GRIP1_2, Q9Y3R0; assay: holdup assay; parameters: key: below the threshold = too weak to quantify, mostly under pKd 3.1 to 4; details: plain residues with an end cap or a label only (N-terminal biotin on a linker: ado-ado)
T2 sequence (Q9Y3R0 145-248, limits assumed, looked up): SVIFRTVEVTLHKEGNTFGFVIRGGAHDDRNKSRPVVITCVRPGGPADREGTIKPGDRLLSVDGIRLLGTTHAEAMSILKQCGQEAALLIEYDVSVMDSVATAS

| pKd | Binder |
| --- | --- |
| below the threshold | LESTTVGTSV [KARS1, Q15046] |
| below the threshold | STKRKLASAV [NCF1, P14598] |

molecular target: T3, PCLO, Q9Y6V0; assay: holdup assay; parameters: key: below the threshold = too weak to quantify, mostly under pKd 3.1 to 4; details: plain residues with an end cap or a label only (N-terminal biotin on a linker: ado-ado)
T3 sequence (Q9Y6V0 4491-4600, limits assumed, looked up): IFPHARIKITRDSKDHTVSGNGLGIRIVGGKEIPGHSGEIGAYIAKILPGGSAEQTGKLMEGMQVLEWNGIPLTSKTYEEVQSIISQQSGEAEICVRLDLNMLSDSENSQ

| pKd | Binder |
| --- | --- |
| below the threshold | LESTTVGTSV [KARS1, Q15046] |
| below the threshold | STKRKLASAV [NCF1, P14598] |

molecular target: SCRIB_3, Q14160; assay: holdup assay; parameters: key: below the threshold = too weak to quantify, mostly under pKd 3.1 to 4; details: plain residues with an end cap or a label only (N-terminal biotin on a linker: ado-ado)
Sequence (Q14160 999-1103): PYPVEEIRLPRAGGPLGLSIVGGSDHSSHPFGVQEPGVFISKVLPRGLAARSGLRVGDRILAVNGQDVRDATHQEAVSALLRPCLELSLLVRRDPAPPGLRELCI

| pKd | Binder |
| --- | --- |
| 4.4 | LESTTVGTSV [KARS1, Q15046] |
| 3.55 | STKRKLASAV [NCF1, P14598] |

molecular target: HTRA2, O43464; assay: holdup assay; parameters: key: below the threshold = too weak to quantify, mostly under pKd 3.1 to 4; details: plain residues with an end cap or a label only (N-terminal biotin on a linker: ado-ado)
Sequence (O43464 355-458): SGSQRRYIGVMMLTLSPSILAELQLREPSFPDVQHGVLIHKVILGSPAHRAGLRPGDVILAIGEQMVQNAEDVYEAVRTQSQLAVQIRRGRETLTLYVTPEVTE

| pKd | Binder |
| --- | --- |
| below the threshold | LESTTVGTSV [KARS1, Q15046] |
| below the threshold | STKRKLASAV [NCF1, P14598] |

molecular target: Inadl_8, Q8NI35; assay: holdup assay; parameters: key: below the threshold = too weak to quantify, mostly under pKd 3.1 to 4; details: plain residues with an end cap or a label only (N-terminal biotin on a linker: ado-ado)
Sequence (Q8NI35 1425-1530): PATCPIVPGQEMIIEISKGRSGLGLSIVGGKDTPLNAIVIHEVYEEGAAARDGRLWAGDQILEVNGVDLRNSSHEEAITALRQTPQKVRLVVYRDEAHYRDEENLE

| pKd | Binder |
| --- | --- |
| 4.15 | LESTTVGTSV [KARS1, Q15046] |
| 4.46 | STKRKLASAV [NCF1, P14598] |

molecular target: T4, SNTG1, Q9NSN8; assay: holdup assay; parameters: key: below the threshold = too weak to quantify, mostly under pKd 3.1 to 4; details: plain residues with an end cap or a label only (N-terminal biotin on a linker: ado-ado)
T4 sequence (Q9NSN8 52-150, limits assumed, looked up): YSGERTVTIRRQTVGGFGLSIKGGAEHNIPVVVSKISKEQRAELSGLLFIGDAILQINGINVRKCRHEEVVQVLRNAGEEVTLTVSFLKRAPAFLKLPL

| pKd | Binder |
| --- | --- |
| 3.7 | LESTTVGTSV [KARS1, Q15046] |
| below the threshold | STKRKLASAV [NCF1, P14598] |

molecular target: T5, FRMPD1, Q5SYB0; assay: holdup assay; parameters: key: below the threshold = too weak to quantify, mostly under pKd 3.1 to 4; details: plain residues with an end cap or a label only (N-terminal biotin on a linker: ado-ado)
T5 sequence (Q5SYB0 52-145, limits assumed, looked up): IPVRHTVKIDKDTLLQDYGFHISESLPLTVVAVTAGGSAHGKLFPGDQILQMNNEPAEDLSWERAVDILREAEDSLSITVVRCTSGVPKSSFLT

| pKd | Binder |
| --- | --- |
| below the threshold | LESTTVGTSV [KARS1, Q15046] |
| below the threshold | STKRKLASAV [NCF1, P14598] |

molecular target: T6, DLG3_2, Q92796; assay: holdup assay; parameters: key: below the threshold = too weak to quantify, mostly under pKd 3.1 to 4; details: plain residues with an end cap or a label only (N-terminal biotin on a linker: ado-ado)
T6 sequence (Q92796 221-321, limits assumed, looked up): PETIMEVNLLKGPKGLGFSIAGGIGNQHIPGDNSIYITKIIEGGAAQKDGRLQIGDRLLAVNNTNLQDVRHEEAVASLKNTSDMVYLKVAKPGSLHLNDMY

| pKd | Binder |
| --- | --- |
| 4.51 | LESTTVGTSV [KARS1, Q15046] |
| 4.45 | STKRKLASAV [NCF1, P14598] |

molecular target: IL16_4, Q14005; assay: holdup assay; parameters: key: below the threshold = too weak to quantify, mostly under pKd 3.1 to 4; details: plain residues with an end cap or a label only (N-terminal biotin on a linker: ado-ado)
Sequence (Q14005 1229-1329): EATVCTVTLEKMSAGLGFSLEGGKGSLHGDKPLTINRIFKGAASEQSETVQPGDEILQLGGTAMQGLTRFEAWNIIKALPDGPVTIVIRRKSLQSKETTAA

| pKd | Binder |
| --- | --- |
| below the threshold | LESTTVGTSV [KARS1, Q15046] |
| below the threshold | STKRKLASAV [NCF1, P14598] |

molecular target: NHERF4_1, Q86UT5-2; assay: holdup assay; parameters: key: below the threshold = too weak to quantify, mostly under pKd 3.1 to 4; details: plain residues with an end cap or a label only (N-terminal biotin on a linker: ado-ado)
Sequence (Q86UT5 other isoform, or with tags, fused parts or gaps): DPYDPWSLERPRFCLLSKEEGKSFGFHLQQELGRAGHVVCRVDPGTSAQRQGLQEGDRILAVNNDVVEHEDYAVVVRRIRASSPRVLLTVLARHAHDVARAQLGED

| pKd | Binder |
| --- | --- |
| below the threshold | LESTTVGTSV [KARS1, Q15046] |
| below the threshold | STKRKLASAV [NCF1, P14598] |

molecular target: LNX1_3, Q8TBB1; assay: holdup assay; parameters: key: below the threshold = too weak to quantify, mostly under pKd 3.1 to 4; details: plain residues with an end cap or a label only (N-terminal biotin on a linker: ado-ado)
Sequence (Q8TBB1 500-596): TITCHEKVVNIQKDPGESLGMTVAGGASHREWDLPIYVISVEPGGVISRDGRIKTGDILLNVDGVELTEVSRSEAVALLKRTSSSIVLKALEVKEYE

| pKd | Binder |
| --- | --- |
| below the threshold | LESTTVGTSV [KARS1, Q15046] |
| below the threshold | STKRKLASAV [NCF1, P14598] |

molecular target: PDLIM1, O00151; assay: holdup assay; parameters: key: below the threshold = too weak to quantify, mostly under pKd 3.1 to 4; details: plain residues with an end cap or a label only (N-terminal biotin on a linker: ado-ado)
Sequence (O00151 1-87): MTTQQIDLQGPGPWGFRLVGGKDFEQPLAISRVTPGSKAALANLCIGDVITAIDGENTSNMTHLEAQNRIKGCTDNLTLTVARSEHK

| pKd | Binder |
| --- | --- |
| below the threshold | LESTTVGTSV [KARS1, Q15046] |
| below the threshold | STKRKLASAV [NCF1, P14598] |

molecular target: T7, DVL3, Q92997; assay: holdup assay; parameters: key: below the threshold = too weak to quantify, mostly under pKd 3.1 to 4; details: plain residues with an end cap or a label only (N-terminal biotin on a linker: ado-ado)
T7 sequence (Q92997 244-331, limits assumed, looked up): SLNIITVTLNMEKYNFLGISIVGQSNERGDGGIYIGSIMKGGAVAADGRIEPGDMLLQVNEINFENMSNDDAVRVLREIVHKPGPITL

| pKd | Binder |
| --- | --- |
| below the threshold | LESTTVGTSV [KARS1, Q15046] |
| below the threshold | STKRKLASAV [NCF1, P14598] |

molecular target: T8, PDZRN3_1, Q9UPQ7; assay: holdup assay; parameters: key: below the threshold = too weak to quantify, mostly under pKd 3.1 to 4; details: plain residues with an end cap or a label only (N-terminal biotin on a linker: ado-ado)
T8 sequence (Q9UPQ7 244-349, limits assumed, looked up): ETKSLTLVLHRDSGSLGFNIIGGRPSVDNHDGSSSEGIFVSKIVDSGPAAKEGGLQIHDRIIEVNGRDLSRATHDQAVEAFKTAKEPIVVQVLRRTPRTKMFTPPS

| pKd | Binder |
| --- | --- |
| 4.24 | LESTTVGTSV [KARS1, Q15046] |
| below the threshold | STKRKLASAV [NCF1, P14598] |

molecular target: TJP1_3, Q07157; assay: holdup assay; parameters: key: below the threshold = too weak to quantify, mostly under pKd 3.1 to 4; details: plain residues with an end cap or a label only (N-terminal biotin on a linker: ado-ado)
Sequence (Q07157 416-512): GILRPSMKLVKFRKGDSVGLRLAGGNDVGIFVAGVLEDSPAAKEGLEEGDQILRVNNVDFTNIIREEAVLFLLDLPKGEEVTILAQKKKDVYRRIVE

| pKd | Binder |
| --- | --- |
| below the threshold | LESTTVGTSV [KARS1, Q15046] |
| below the threshold | STKRKLASAV [NCF1, P14598] |

molecular target: T9, MPP6, Q9NZW5; assay: holdup assay; parameters: key: below the threshold = too weak to quantify, mostly under pKd 3.1 to 4; details: plain residues with an end cap or a label only (N-terminal biotin on a linker: ado-ado)
T9 sequence (Q9NZW5 125-219, limits assumed, looked up): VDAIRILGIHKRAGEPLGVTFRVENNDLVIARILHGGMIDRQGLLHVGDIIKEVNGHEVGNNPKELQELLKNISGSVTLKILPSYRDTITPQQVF

| pKd | Binder |
| --- | --- |
| below the threshold | LESTTVGTSV [KARS1, Q15046] |
| below the threshold | STKRKLASAV [NCF1, P14598] |

molecular target: LAP2, Q96RT1; assay: holdup assay; parameters: key: below the threshold = too weak to quantify, mostly under pKd 3.1 to 4; details: plain residues with an end cap or a label only (N-terminal biotin on a linker: ado-ado)
Sequence (Q96RT1 other isoform, or with tags, fused parts or gaps): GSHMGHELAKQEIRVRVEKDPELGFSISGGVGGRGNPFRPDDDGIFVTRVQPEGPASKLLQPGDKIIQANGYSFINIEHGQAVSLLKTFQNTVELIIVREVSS

| pKd | Binder |
| --- | --- |
| 3.92 | LESTTVGTSV [KARS1, Q15046] |
| below the threshold | STKRKLASAV [NCF1, P14598] |

molecular target: FRMPD2_2, Q68DX3; assay: holdup assay; parameters: key: below the threshold = too weak to quantify, mostly under pKd 3.1 to 4; details: plain residues with an end cap or a label only (N-terminal biotin on a linker: ado-ado)
Sequence (Q68DX3 944-1038): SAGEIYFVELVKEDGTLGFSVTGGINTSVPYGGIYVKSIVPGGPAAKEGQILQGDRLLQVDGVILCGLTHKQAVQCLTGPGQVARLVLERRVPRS

| pKd | Binder |
| --- | --- |
| 3.79 | LESTTVGTSV [KARS1, Q15046] |
| below the threshold | STKRKLASAV [NCF1, P14598] |

molecular target: GRID2IP_1, A4D2P6; assay: holdup assay; parameters: key: below the threshold = too weak to quantify, mostly under pKd 3.1 to 4; details: plain residues with an end cap or a label only (N-terminal biotin on a linker: ado-ado)
Sequence (A4D2P6 1-87): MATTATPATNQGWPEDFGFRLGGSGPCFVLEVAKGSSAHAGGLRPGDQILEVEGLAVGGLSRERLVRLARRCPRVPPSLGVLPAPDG

| pKd | Binder |
| --- | --- |
| below the threshold | LESTTVGTSV [KARS1, Q15046] |
| below the threshold | STKRKLASAV [NCF1, P14598] |

molecular target: T10, DLG3_1, Q92796; assay: holdup assay; parameters: key: below the threshold = too weak to quantify, mostly under pKd 3.1 to 4; details: plain residues with an end cap or a label only (N-terminal biotin on a linker: ado-ado)
T10 sequence (Q92796 125-227, limits assumed, looked up): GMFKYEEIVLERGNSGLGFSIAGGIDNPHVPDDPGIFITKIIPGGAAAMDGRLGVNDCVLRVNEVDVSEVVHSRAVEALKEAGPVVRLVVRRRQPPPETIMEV

| pKd | Binder |
| --- | --- |
| 3.98 | LESTTVGTSV [KARS1, Q15046] |
| 3.49 | STKRKLASAV [NCF1, P14598] |

molecular target: T11, LIN7B, Q9HAP6; assay: holdup assay; parameters: key: below the threshold = too weak to quantify, mostly under pKd 3.1 to 4; details: plain residues with an end cap or a label only (N-terminal biotin on a linker: ado-ado)
T11 sequence (Q9HAP6 88-185, limits assumed, looked up): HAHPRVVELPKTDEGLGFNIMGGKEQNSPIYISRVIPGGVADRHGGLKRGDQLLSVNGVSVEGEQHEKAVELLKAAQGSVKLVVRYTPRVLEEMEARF

| pKd | Binder |
| --- | --- |
| 3.79 | LESTTVGTSV [KARS1, Q15046] |
| below the threshold | STKRKLASAV [NCF1, P14598] |

molecular target: T12, LIN7A, O14910; assay: holdup assay; parameters: key: below the threshold = too weak to quantify, mostly under pKd 3.1 to 4; details: plain residues with an end cap or a label only (N-terminal biotin on a linker: ado-ado)
T12 sequence (O14910 103-200, limits assumed, looked up): T11 sequence (Q9HAP6 88-185, limits assumed, looked up) with A2S, I20V, V35I, D42E, Q65H, Q77K, G78D, R89K

| pKd | Binder |
| --- | --- |
| below the threshold | LESTTVGTSV [KARS1, Q15046] |
| below the threshold | STKRKLASAV [NCF1, P14598] |

molecular target: ARHGEF12, Q9NZN5-2; assay: holdup assay; parameters: key: below the threshold = too weak to quantify, mostly under pKd 3.1 to 4; details: plain residues with an end cap or a label only (N-terminal biotin on a linker: ado-ado)
Sequence (Q9NZN5 other isoform, or with tags, fused parts or gaps): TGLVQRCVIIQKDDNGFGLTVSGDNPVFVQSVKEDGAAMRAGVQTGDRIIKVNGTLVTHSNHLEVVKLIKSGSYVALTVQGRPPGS

| pKd | Binder |
| --- | --- |
| 4.03 | LESTTVGTSV [KARS1, Q15046] |
| 3.79 | STKRKLASAV [NCF1, P14598] |
